Experimental data as given in patent publication US20210309751A1.

How the values were obtained:
[1] = biological target: RevCAR harboring the La 5B9 epitope tag, on RevCAR expressing cells (human); experiment: binding assay on RevCAR expressing target cells
[2] = biological target: CD123 (interleukin-3 receptor a chain) on CD123-expressing OCI-AML3 blasts (human) (UniProt P26951); experiment: binding assay on CD123-expressing OCI-AML3 cells
Chain of UniProt P26951 (P26951 19-378): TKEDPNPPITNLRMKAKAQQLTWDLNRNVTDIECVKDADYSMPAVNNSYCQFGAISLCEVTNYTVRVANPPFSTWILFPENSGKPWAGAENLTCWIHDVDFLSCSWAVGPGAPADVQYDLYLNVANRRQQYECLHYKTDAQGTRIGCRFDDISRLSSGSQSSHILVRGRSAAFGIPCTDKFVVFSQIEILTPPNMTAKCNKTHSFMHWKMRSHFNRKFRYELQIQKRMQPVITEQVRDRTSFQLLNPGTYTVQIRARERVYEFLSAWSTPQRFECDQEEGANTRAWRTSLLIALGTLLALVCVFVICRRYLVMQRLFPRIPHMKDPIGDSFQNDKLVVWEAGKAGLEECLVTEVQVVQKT

Kd [1]: 0.012 nM | Kd [2]: 0.015 nM
B1: AdMo CD123-La5B9 (CD123-specific adapter module with an scFv recognizing the La 5B9 epitope) (bispecific antibody, part only; not given: linkers, domain order, tags, V domains shown, not shown: another chain or arm of the molecule; small tags and cut ends)
VH 1: QVQLVQSGAEVKKPGASVKVSCKASGYTFTHYYIYWVRQAPGQGLEWMGGVNPSNGGTHFNEKFKSRVTMTRDTSISTAYMELSRLRSDDTAVYYCARSEYDYGLGFAYWGQGTLVTVSS
VL 1: DIVMTQSPDSLAVSLGERATINCKSSQSLLNSRTPKNYLAWYQQKPGQPPKLLIYWASTRKSGVPDRFSGSGSGTDFTLTISSLQAEDVAVYYCKQSYNLLTFGGGTKVEIK
VH 2: EVQLQQSGPELVKPGASVKMSCKASGYTFTDYYMKWVKQSHGKSLEWIGDIIPSNGATFYNQKFKGKATLTVDRSSSTAYMHLNSLTSEDSAVYYCTRSHLLRASWFAYWGQGTLVTVS
VL 2: DFVMTQSPSSLTVTAGEKVTMSCKSSQSLLNSGNQKNYLTWYLQKPGQPPKLLIYWASTRESGVPDRFTGSGSGTDFTLTISSVQAEDLAVYYCQNDYSYPYTFGGGTKLEIK
